We go through one protein from paper PMC3124540, “A Minimum of Three Motifs Is Essential for Optimal Binding of Pseudomurein Cell Wall-Binding Domain of Methanothermobacter thermautotrophicus” (PLoS ONE, 2011).

The data set concerns the molecule itself. The data set can be described thus: SEC; Superdex 200 10/300 GL, room temperature, 50 mM NaH2PO4, 150 mM NaCl, pH 7.0; calibrated with globular proteins. (In general: In gel filtration, larger molecules generally elute earlier.)

B1: three pseudomurein binding motifs with C-terminal ten-Histidine tag (3P-His10), the PMB domain of MTH719 (domain or fragment, Methanothermobacter thermautotrophicus)
chain: MGGGFAASVKISVRQLTDAASWVRAYYGRYGRLPGKVTISGHGYSMAQFLYLLCRATVNINAGNVAPISVKSVASAPASGGWYRHGRLYRSSYVRVAKNILSFIDSRGRAPNYAITGLGRIPFQRLVYMYSKIIKFYGTNKRLPNYVTI
notes: short N-terminal peptide region resulting from the cloning procedure (LIC); also called PMB domain 3P-His10; 3P-His10 PMB domain; source: E. coli Rosetta gami 2 (pBADcLIC, arabinose induced), purified (Ni-NTA); not shown: His10, C-terminal, kept
B1: the binding result is given as “binds”.
